Measured values published in patent US20240084003A1 (SIMCERE ZAIMING PHARMACEUTICAL, published 2024).

T1: monkey CD22 on HEK293T-monkey CD22 cells (monkey)
T1 construct: full-length entry expressed on stably transfected HEK293T cells
T1 chain: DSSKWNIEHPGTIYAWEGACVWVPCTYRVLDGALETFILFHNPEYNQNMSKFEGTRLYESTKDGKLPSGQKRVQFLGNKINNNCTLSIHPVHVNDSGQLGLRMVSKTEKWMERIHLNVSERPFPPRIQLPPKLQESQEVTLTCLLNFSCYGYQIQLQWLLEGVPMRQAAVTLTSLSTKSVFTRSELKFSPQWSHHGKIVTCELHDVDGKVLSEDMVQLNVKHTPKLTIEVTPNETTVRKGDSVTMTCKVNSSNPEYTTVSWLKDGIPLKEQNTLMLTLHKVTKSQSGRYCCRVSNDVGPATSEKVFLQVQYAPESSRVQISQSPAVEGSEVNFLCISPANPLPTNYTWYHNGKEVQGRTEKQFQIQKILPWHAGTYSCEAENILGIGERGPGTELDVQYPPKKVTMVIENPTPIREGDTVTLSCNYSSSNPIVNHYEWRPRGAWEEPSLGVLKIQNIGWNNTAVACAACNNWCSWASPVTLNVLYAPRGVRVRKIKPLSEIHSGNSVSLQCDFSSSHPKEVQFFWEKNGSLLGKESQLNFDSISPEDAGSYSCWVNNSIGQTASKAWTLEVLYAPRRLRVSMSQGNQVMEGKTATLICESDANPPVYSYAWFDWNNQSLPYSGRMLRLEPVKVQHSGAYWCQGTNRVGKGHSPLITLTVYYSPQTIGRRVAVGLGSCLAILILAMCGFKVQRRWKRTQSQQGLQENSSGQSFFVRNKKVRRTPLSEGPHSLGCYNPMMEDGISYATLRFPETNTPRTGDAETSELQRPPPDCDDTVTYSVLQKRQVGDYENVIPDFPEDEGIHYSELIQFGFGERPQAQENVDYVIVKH


Molecular target: T1, monkey CD22 on HEK293T-monkey CD22 cells
Assay: FACS, HEK293T-monkey CD22 cells
Experimental: For suspension cell Raji, the medium supernatant was directly centrifuged and discarded, and the cell pellet was washed 2 times with PBS. After counting the cells in the previous step, the cell pellet was resuspended with [PBS+2% (w/w) BSA] blocking solution to 2×10⁶ cells/ml, and added to a 96-well FACS reaction plate at 50 μl/well, and then the chimeric antibody test sample was added at 50 μl/well, and incubated on ice for 2 hours. The mixture was centrifuged and washed 3 times with PBS buffer, Alexa Flour 488-labeled secondary antibody (purchased from Invitrogen, catalog number: A-11013) was added at 50 μl/well, and incubated on ice for 1 hour. The obtained mixture was centrifuged and washed 5 times with PBS, and FACS (FACS Canto™, purchased from BD Company) was used for detection and result analysis. Data analysis was performed by software (CellQuest) to obtain the mean fluorescence density (MFI)of the cells. And then software (GraphPad Prism8) was used for analysis, data fitting, and EC50 value calculation. […] The same method was used to detect the binding of the chimeric antibodies to endogenous CD22-negative cell MoLT4 cells (purchased from ATCC, CRL-1582) and CHO-K1 cells.
HEK293T-monkey CD22 cells were subjected to FACS detection and data analysis according to the method in Example 5.2.

Binder	EC50 [nM]	Maximum mean fluorescence intensity [MFI]
F1.172.13 (antibody, human IgG1, kappa, V domains shown, human-murine chimeric IgG1 kappa) VH: QVTLKESGPGILQSSQTLSLTCSFSGFSLSTSGMGVSWIRQPSGKGLEWLAHIYWDDDKRYNPSLKSRLTISKDTSRNQVFLKITSVDTADTATYYCARAPPPNWDEYYFDYWGQGTTLTVSS VL: DIQMTQSPASLSASVGETVTITCRASGNIHNSLAWYQQKQGKSPQLLVHNAKTLADGVPSRFSGSGSGTQYSLKINSLQPEDFGSYYCQHFWSTPPFGGGTKLEIKR	0.47	19000
F1.120.15 (antibody, human IgG1, kappa, V domains shown, human-murine chimeric IgG1 kappa) VH: QVQLQQSGPELVKPGASVKISCKASGNAFSNSWMNWVKQRPGKGLEWIGRVYSEDGDTQYNGKFRDKATLTADRSTSTAYMQLSSLTSEDSAVYFCARWLIYYGTYGAMDYWGQGTSVTVSS VL: DIQMTQTTSSLSASLGDRVTISCRASQDINNYLNWYHQKPDGTVKLLIYFTSRPYSGVPSRFSGSGSGTDYSLTISNLEQEDIATYFCQQGNTLPWTFGGGTKLEIKR	0.95	13600
F1.17.1 (antibody, human IgG1, kappa, V domains shown, human-murine chimeric IgG1 kappa) VH: QVQLKESGPGLVAPSQSLSITCTVSGFSLSRYTVHWVRQPPGKGLEWLGMIWGGGSTDYNSALKSRLSISKDNSKSQVFLKMNSLQTDDTAMYYCARPHDFDAGGFAYWGQGTLVTVSA VL: QIVLTQSPAILSTSPGEKVTMTCSASSRVNYMYWYQQKPGSSPRLLIYDTSNLASGVPVRFSGSGSGTSYSLTISRMEAEDAATYYCQQWTSYPLTFGAGTKLELKR	0.38	17200
F1.192.1 (antibody, human IgG1, kappa, V domains shown, human-murine chimeric IgG1 kappa) VH: AVQLQQSGVELVRPGASVKLSCTGSDFNIKEDYIHWVKQRPEQGLEWIGWIDPENGDTEYASKFQGKATITADTSSNTAYLQLSSLTSEDTAVYYCATYGSLDYWGQGTTLTVSS VL: DIKMTQSPSSMYAFLGERVTITCKASQGINSFLTWFQQKPGKSPKTLIYRANRLVDGVPSRFSGSGSGQDYSLTISSLEYEDVGIYYCLQYDEFPRTFGGGTKLEIKR	0.62	16300
F1.105.11 (antibody, human IgG1, kappa, V domains shown, human-murine chimeric IgG1 kappa; VL name legible) VH: EVQLQQSGPVLVKPGASVKMSCKASGYTFSDYFMNWVKQSHGKSLEWIGIINSYSGGTSYNQKFKGKATLTVDKSSSTAYMELNSLTSEDSAVYYCARWMDYWGQGTSVTVSS VL: DVQITQSPSYLAASPGETITINCRTSESISKHLAWYQEKPGKTNKLLIYSGSTLQSGIPSRFSGSGSGTDFTLTISSLEPEDFAMYYCQQHNEYPWTFGGGTKLEIKR	1.3	7530
F1.7.6 (antibody, human IgG1, kappa, V domains shown, human-murine chimeric IgG1 kappa; VL name legible) VH: EIQLQQSGPELVKPGTSVKVSCKASGYDFTRYNMYWVKQSHGKSLEWIGYIDPYNGDTRYNQKFKGKATLTVDKSSSTAYMHLNSLTSEDSAVYYCEAIYYDMEGYALDYWGQGTSVTVSS VL: DIVMSQSPSSLAVSVGEKVTMSCKSSQSLLYSNNQKNYLAWYQQKPGQSPKKLIYWASTRESGVPDRLTGSGSGTDFTLTISSVTAEDLAVYYCQQFYSYPWTFGGGTKLEIKR	2.22	9220
F1.231.15 (antibody, IgG1, V domains shown, human-murine chimeric IgG1 kappa) VH: QVQLQQPGAELVKPGASVKLSCKTSGYTFTIYWMQWVKQRPGRGLEWIGRIDPHSGDTHYNENFTTKVTLTVDETSNTAYMHLSGLTSEDSAVYYCARRDYSYYVLDYWGQGTSVTVSS VL: DVVLTQTPLSLPVSLGDQASISCRSSQSLVHINGDTYLHWYLQKPGQSPKLLIYTVFNRFSGVPDRFSGSGSGTDFTLKISRVEAEDLGAYFCSQSTHVPYTFGGGTKLEIKR	12.3	9250
F1.216.2 (antibody, human IgG1, kappa, V domains shown, human-murine chimeric IgG1 kappa) VH: QVQLQQSGPEVVRPGASVKISCKASGYAFSSSWMNWMKQRPGKALEWIGRIYPGDGDTNYSGEFKVKATLTADKSSSTAYMQLSSLTSEDSAVYFCAREGSYYSNPWYFDYWGQGTTLTVSS VL: DVLVTQTPLSLPVSLGDQASISCRSSQSIVQSNGDTYLEWYLQKPGQSPKLLIYKVSNRFSGVPDRFSGSGSGTDFTLKISRVEAEDLGVYYCFQGSHVPFTFGSGTKLEIKR	0.26	13900
F1.60.9 (antibody, human IgG1, kappa, V domains shown, human-murine chimeric IgG1 kappa) VH: QVQLKESGPGLVAPSQSLSITCTVSGLSLNNYGVSWVRQPPGKGLEWLGVIWGDGSTNYHSALISRLSISKDNSKSQVFLKLNSLHTDDTATYYCAINWGDYWGQGTTLIVSS VL: DIKMTQSPSSMNASLGERVTITCKASQDINSYLSWFQQKPGKSPKILIYRANRLIDGVPSRFSGSGSGQDYSLTISSLEYEDMGIYYCLQYGVFPLTFGAGTKLELKR		531
F1.224.1 (antibody, human IgG1, kappa, V domains shown, human-murine chimeric IgG1 kappa; VL name legible) VH: EVLLHQSGPELVKPGASVKISCKASGYTFTDFNMDWVRQRHGQSLEWIGDVNPNNGGTIYNQKFKGKATLTVDKSSSTVYMDLRSLTSDDTAVYYCVRLGTSDYGEAWFISWGQGTVVTVSA VL: DIVLTQSPASLAVSLGQRATISCRASQSVSTPRYSFMHWYQQKPGQPPKLLIKYASNLESGFPARFTGSGSGTDFTLNIHPVEEEDTAAYYCQQSWAIPWTFGGGTKLEIKR	0.79	16300
F1.257.3 (antibody, human IgG1, kappa, V domains shown, human-murine chimeric IgG1 kappa; VL name legible) VH: QVQLQQSGPELARPGASVKLSCKASGYTFTSYGISWVKQRTGQDLEWIGEIYPKLGTTYYNEKFKDKATLTTDRSSSTAYMALRSLTSEDSAVYFCACPHYYATRGGDYWGQGTTLTVSS VL: EIVLTQSPATLSVTPGDSVTFSCRASQSISNHLHWYQQKSHESPRLLIRYASQSISGIPSRFSGSGSGTDFTLSLSSVETEDFGVYFCQQSHSWPYTFGGGTKLEIAR		147
F1.200.11 (antibody, human IgG1, kappa, V domains shown, human-murine chimeric IgG1 kappa) VH: QNQLVQSGPELKKPGETVKISCKASGYTFTTAGMQWVQKMPGKGFKWIGWINTLSGEPKYAEDFKGRFAFSLETSATTAYLQISNLKNEDTATYFCARAYYSNLYWYFDVWGTGTTVTVSS VL: DIVMTQSQKFMSTTVGDRVTITCKASQNVVTAVAWYQQKPGQSPKVLIYSASNRYSGVPDRFTGSGSGTDFTLTISNMHSEDLANYFCHQYSSYPFTFGSGTKLEIKR	4.32	16200
F1.267.9 (antibody, human IgG1, kappa, V domains shown, human-murine chimeric IgG1 kappa; VL name legible) VH: EVQLQQSGPVLVKPGASVKMSCKASGYTFTDFYMNWAKQSHGKSLEWVGVINPYNGGINYNQKFKGKATLTVDKSSSTAYMEFNSLTSEDSAVYYCARRMEYHAMDYWGQGTSVTVSS VL: DIVLTQSPASLAVSLGQRATISCRASESVDNYGFDFIHWYQQKPGQPPKLLIYRASNLESGIPARFSGSGSRPDFTLTINPVETDDVATYYCQQSIKDPWTFGGGTKLEIKR	1.15	15300
F1.250.16 (antibody, human IgG1, kappa, V domains shown, human-murine chimeric IgG1 kappa; VL name legible) VH: QVQLQQSGAEQVKPGASVKMSCKASGYTFTTYPIEWMKQNHGESLDWIGNIHPYNDDTEYNEKFKGKATLTVEKSSNTVFLELSRLTSDDSAVYYCVRGDYYNSRYWYFDVWGTGTTVTVSS VL: DIVMTQSQKFMSTTVGDRVSITCKAGQNVRTAVAWYQQKPGQSPKLLIYSASTRYIGVPERFTGSGSGTDFTLTITNMQSEDLADYFCQQYSSFPLTFGTGTKLELKR	0.31	19700
F1.245.2 (antibody, human IgG1, kappa, V domains shown, human-murine chimeric IgG1 kappa) VH: EVQLQQSGAELVKPGASVKLSCTGSGFNIKDYYIHWVKQRTEQGLEWMGRIDPEDGETEYAPKFQDEATITSDTSSNTAYLQLSSLTYEDTAVYYCAREAAGYFYRGSSYGYFDVWGTGTTVTVSS VL: DFQMTQTTSFLSASLGDRVTISCSASQDISNYLNWYQQKPDGTVKLLIYYTSSLHSGVPSRFSGSGSGTDYSLTISNLEPEDIATYYCQQYSMLPYTFGGGTKLEMER		124
